Assay results: US20130224224A1 (Boehringer Ingelheim, published 2013)

T1: human CX3CR1 (human, UniProt P49238 1-355)
T1 construct: overexpressed on CHO, BA/F3 or HEK293T cells; also called huCX3CR1; hCX3CR1
T1 sequence: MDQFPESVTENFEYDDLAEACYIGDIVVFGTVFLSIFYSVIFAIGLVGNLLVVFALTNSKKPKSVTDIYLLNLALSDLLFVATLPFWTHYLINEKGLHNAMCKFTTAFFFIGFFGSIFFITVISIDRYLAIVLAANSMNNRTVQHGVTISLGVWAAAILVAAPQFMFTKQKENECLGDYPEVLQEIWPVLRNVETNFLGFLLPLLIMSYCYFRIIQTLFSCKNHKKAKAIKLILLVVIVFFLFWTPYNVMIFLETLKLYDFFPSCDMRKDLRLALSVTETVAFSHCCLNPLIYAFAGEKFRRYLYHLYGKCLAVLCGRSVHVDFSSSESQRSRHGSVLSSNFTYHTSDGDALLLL


Each binder was assayed against T1, human CX3CR1 (assay: fractalkine competition FACS).

Binder | % block | IC50
CX3CR1BII66B02 (N52Q, Q108L) (VHH, name in Kabat numbering, Kabat numbering) VHH: EVQLVESGGGSVQAGESLRLSCAASGSIFSSNAMAWYRQAPGKRRDLVAAIQSVGVTKYADSVKGRFTISRDNAKNTVYLQMNSLKPEDTAVYYCTSDPRRGWDTRYWGQGTLVTVSS | 97.9% | 2.1 nM
CX3CR1BII66B02 (N52G, Q108L) (VHH, name in Kabat numbering, Kabat numbering) VHH: EVQLVESGGGSVQAGESLRLSCAASGSIFSSNAMAWYRQAPGKRRDLVAAIGSVGVTKYADSVKGRFTISRDNAKNTVYLQMNSLKPEDTAVYYCTSDPRRGWDTRYWGQGTLVTVSS | 98% | 1.1 nM

What follows are binders tested against T1, human CX3CR1 (assay: periplasmic extract, A647-fractalkine competition FACS, CHO-huCX3CR1).
Source text: Periplasmic extracts were screened in a human CX3CR1/human Fractalkine FACS competition assay to assess the blocking capacity of the expressed VHHs. Human CX3CR1 was presented on CHO cells overexpressing CX3CR1. Both a setup using cells harvested from an actively growing culture and a setup using frozen cells was used. As a detection reagent labeled fractalkine was used (R&D Systems, Minneapolis, Minn., USA) labeled with alexa647 (A647-Fractalkine) at a degree of labeling of 1. To setup the assay, first a titration series of the labeled fractalkine was performed on the CHO-huCX3CR1 cells in order to determine the EC50 value for binding. Initially screening was performed at a higher concentration of fractalkine (3 nM) to increase the assay robustness. To increase the sensitivity of the screening to a maximum, the EC30 concentration (1 nM) was chosen for subsequent screening. In brief 50 μl of periplasmic extract was added to 6 nM labeled fractalkine (50 μ;) and 200 000 CHO-huCX3CR1 cells. After one hour incubation at 4 C, cells were washed three times before read out was performed on a FACS Array (Becton Dickinson). First a gate was set on the intact cells as determined from the scatter profile. Next, dead cells were gated out by their fluorescence profile from the PI stain (Sigma, St Louis, US). The fluorescence profile from the alexa647 label was determined for each sample and used for calculation of blocking capacity. As controls, conditions were taken along where there was no VHH present in the peri extract or a known irrelevant VHH and samples were included where excess cold fractalkine was included. For each sample the percentage block was determined using the control samples to determine the assay window.

Binder | % block
CX3CR1BIIPMP61D1 (VHH, tested as periplasmic extract; not shown: C-terminal c-myc and His6 tags) VHH: EVQLVESGGGSVQAGESLRLSCAASGSIFSSNAMAWYRQAFGKQRDLVALINSVGITKYADSVKGRFTISRDNAKNTVYLQMNSLKPEDTAVYYCTSDPRRGWDTRYWGQGTQVTVSS | 68.4%
CX3CR1BIIPMP61F10 (VHH, tested as periplasmic extract; not shown: C-terminal c-myc and His6 tags) VHH: KVQLVESGGGSVQAGESLRLSCAASGTIFSSNAMAWYRQAPGKQRDLVAGINSVDITKYADSVKGRFTISRDNAKNTVYLQMNSLKPEDTAVYYCTSDPRRGWNTRYWGQGTQVTVSS | 73.5%
CX3CR1BIIPMP61G2 (VHH, tested as periplasmic extract; not shown: C-terminal c-myc and His6 tags) VHH: EVQLVKSGGGSVQAGESLRLSCAASGSIFSSNAMAWYRQAPGKQRDLVALINSVGITKYADSVKGRFTISRDNAKNTVYLQMNSLKPEDTAVYYCTSDPRRGWDTRYWGQGTQVTVSS | 82%
CX3CR1BIIPMP61F4 (VHH, tested as periplasmic extract; not shown: C-terminal c-myc and His6 tags) VHH: EVQLVESGGGSVQAGASLRLSCAASGSIFSSNAMAWYRQAPGKQRDLVAVINTVGITKYADSVKGRFTISRDNAKNTVYLQMNSLKPEDTAVYYCTSDARRGWDTRYWGQGTLVTVSS | 94.4%
CX3CR1BIIPMP61D5 (VHH, tested as periplasmic extract; not shown: C-terminal c-myc and His6 tags) VHH: KVQLVESGGGSVQAGESLRLSCAASGSIFSSNAMAWYRQAFGKQRDLVALINSVGITKYADSVKGRFTISRDNAKNTVYLQMNSLKPEDTAVYYCTSDPRRGWDTRYWGQGTQVTVSS | 94.9%
CX3CR1BIIPMP54A5 (VHH, tested as periplasmic extract; not shown: C-terminal c-myc and His6 tags) VHH: EVQLVESGGGSVQAGESLRLSCAASGSIFSSNAMAWYRQAPGKQRDLVAGINSVGITKYADSVKGRFTISRDNAKNTVYLQMNSLKPEDTAVYYCTSDPRRGWDTRYWGQGTLVTVSS | 92.5%
CX3CR1BIIPMP61A11 (VHH, tested as periplasmic extract; not shown: C-terminal c-myc and His6 tags) VHH: EVQLVESRGGSVQAGESLRLSCAASGSIFSSNAMAWYRQAPGKQRDLVAVINSVGITKYADSVKGRFTISGDNAKNTVYLQMNSLKPEDTAVYYCTSDARRGWDTRYWGQGTQVTVSS | 78%
CX3CR1BIIPMP54F6 (VHH, tested as periplasmic extract; not shown: C-terminal c-myc and His6 tags) VHH: KVQLVESGGGSVQAGESLRLSCAASGSIFSSNAMAWYRQAPGKQRDLVAAINSVGITKYADSVKGRFTISRDNAKNTVYLQMNSLKPEDTAVYYCTSDPRRGWDTRYWGQGTLVTVSS | 96.6%
CX3CR1BIIPMP54B5 (VHH, tested as periplasmic extract; also called CX3CR1BII54B5; not shown: C-terminal c-myc and His6 tags) VHH: EVQLVESGGGSVQAGESLRLSCAASGSIFSSNAMAWYRQAPGKQRDLVAGINSVGITKYADSVKGRFTISRDNAKNTAYLQMNSLKPEDTAVYYCTSDPRRGWDTRYWGQGTLVTVSS | 92.6%
CX3CR1BIIPMP54B1 (VHH, tested as periplasmic extract; not shown: C-terminal c-myc and His6 tags) VHH: EVQLVESGGGSVQAGESLRLSCAASGSIFSSNAMAWYRQAPGKQRDLVAGINSVGITKYADSVKGRFTISRDNAKNTAYLQMNSLKPEDTAVYYCTSDPRRGWDTRYWGQGTQVTVSS | 92.1%
CX3CR1BIIPMP54A3 (VHH, tested as periplasmic extract; not shown: C-terminal c-myc and His6 tags) VHH: EVQLVESGGGSVQAGESLRLSCAASGSIFSSNAMAWYRQAPGKQRDLVAGINSVGITKYADSVKGRFTISRDNAKNTVYLQMNSLKPEDTAVYYCTSDPRRGWDTRYWGQGTQVTVSS | 90.8%
CX3CR1BIIPMP54H4 (VHH, tested as periplasmic extract; not shown: C-terminal c-myc and His6 tags) VHH: EVQLVESGGGSVQAGESLRLSCAASGSIFSSNAMAWYRQAPGKQRDLVAVINSVGITKYADSVKGRFTISGDNAKNTVYLQMNSLKPEDTAVYYCTSDARRGWDTRYWGQGTLVTVSS | 96%
CX3CR1BIIPMP54B2 (VHH, tested as periplasmic extract; not shown: C-terminal c-myc and His6 tags) VHH: EVQLVESGGGSVQAGESLRLSCAASGTIFSSNAMAWYRQAPGKQRDLVAGINSVDITKYADSVKGRFTISRDNAKNTVYLQMNSLKPEDTAVYYCTSDPRRGWNTRYWGQGTLVTVSS | 65.3%
CX3CR1BIIPMP61C9 (VHH, tested as periplasmic extract; not shown: C-terminal c-myc and His6 tags) VHH: EVQLVKSGGGSVQAGESLRLSCAASGSIFSSNAMAWYRQALGKQRDLVALIDSAGITKYADSVKGRFTISRDNAKNTVYLQMNRLKPEDTAVYYCASDARRGWNTKYWGQGTLVTVSS | 69.4%

Target: T1, human CX3CR1
Assay: fractalkine competition FACS
Remark: another data set of the same source

Binder | % block | IC50
C100CX3CR1BII043 (VHH, 66B02 with A14P, A74S, K83R, Q108L; not shown: myc/His tag) VHH: EVQLVESGGGSVQPGESLRLSCAASGSIFSSNAMAWYRQAPGKRRDLVAAINSVGVTKYADSVKGRFTISRDNSKNTVYLQMNSLRPEDTAVYYCTSDPRRGWDTRYWGQGTLVTVSS | 101% | 2.2 nM
C100CX3CR1BII045 (VHH, 66B02 with E1D, A14P, A74S, K83R, Q108L; not shown: myc/His tag) VHH: DVQLVESGGGSVQPGESLRLSCAASGSIFSSNAMAWYRQAPGKRRDLVAAINSVGVTKYADSVKGRFTISRDNSKNTVYLQMNSLRPEDTAVYYCTSDPRRGWDTRYWGQGTLVTVSS | 101% | 2.2 nM
C100CX3CR1BII061 (VHH, 66B02 with S11L, A14P, E16G, A74S, K83R, Q108L; not shown: myc/His tag) VHH: EVQLVESGGGLVQPGGSLRLSCAASGSIFSSNAMAWYRQAPGKRRDLVAAINSVGVTKYADSVKGRFTISRDNSKNTVYLQMNSLRPEDTAVYYCTSDPRRGWDTRYWGQGTLVTVSS | 98.9% | 1.4 nM
C100CX3CR1BII057 (VHH, 66B02 with S11L, A14P, E16G, D46E, A74S, K83R, Q108L; not shown: myc/His tag) VHH: EVQLVESGGGLVQPGGSLRLSCAASGSIFSSNAMAWYRQAPGKRRELVAAINSVGVTKYADSVKGRFTISRDNSKNTVYLQMNSLRPEDTAVYYCTSDPRRGWDTRYWGQGTLVTVSS | 99.4% | 14 nM
C100CX3CR1BII060 (VHH, 66B02 with S11L, A14P, E16G, R44Q, D46E, A74S, K83R, Q108L; not shown: myc/His tag) VHH: EVQLVESGGGLVQPGGSLRLSCAASGSIFSSNAMAWYRQAPGKQRELVAAINSVGVTKYADSVKGRFTISRDNSKNTVYLQMNSLRPEDTAVYYCTSDPRRGWDTRYWGQGTLVTVSS | 98.4% | 190 nM
C100CX3CR1BII047 (VHH, 66B02 with S11L, A14P, A74S, K83R, Q108L; not shown: myc/His tag) VHH: EVQLVESGGGLVQPGESLRLSCAASGSIFSSNAMAWYRQAPGKRRDLVAAINSVGVTKYADSVKGRFTISRDNSKNTVYLQMNSLRPEDTAVYYCTSDPRRGWDTRYWGQGTLVTVSS | 101% | 2.3 nM
C100CX3CR1BII050 (VHH, 66B02 with A14P, D46E, A74S, K83R, Q108L; not shown: myc/His tag) VHH: EVQLVESGGGSVQPGESLRLSCAASGSIFSSNAMAWYRQAPGKRRELVAAINSVGVTKYADSVKGRFTISRDNSKNTVYLQMNSLRPEDTAVYYCTSDPRRGWDTRYWGQGTLVTVSS | 101% | 17 nM
C100CX3CR1BII056 (VHH, 66B02 with S11L, A14P, E16G, R44Q, A74S, K83R, Q108L; not shown: myc/His tag) VHH: EVQLVESGGGLVQPGGSLRLSCAASGSIFSSNAMAWYRQAPGKQRDLVAAINSVGVTKYADSVKGRFTISRDNSKNTVYLQMNSLRPEDTAVYYCTSDPRRGWDTRYWGQGTLVTVSS | 101% | 16 nM
C100CX3CR1BII049 (VHH, 66B02 with A14P, R44Q, A74S, K83R, Q108L; not shown: myc/His tag) VHH: EVQLVESGGGSVQPGESLRLSCAASGSIFSSNAMAWYRQAPGKQRDLVAAINSVGVTKYADSVKGRFTISRDNSKNTVYLQMNSLRPEDTAVYYCTSDPRRGWDTRYWGQGTLVTVSS | 101% | 18 nM
C100CX3CR1BII048 (VHH, 66B02 with A14P, E16G, A74S, K83R, Q108L; not shown: myc/His tag) VHH: EVQLVESGGGSVQPGGSLRLSCAASGSIFSSNAMAWYRQAPGKRRDLVAAINSVGVTKYADSVKGRFTISRDNSKNTVYLQMNSLRPEDTAVYYCTSDPRRGWDTRYWGQGTLVTVSS | 101% | 1.9 nM
